Test system: peptide library, one residue held at a place counted from the Y acceptor
Assay: relative phosphorylation of the sub-library (ratio to the mean residue at this position); higher = residue favoured
Method in brief: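 Peptide library mixtures, biotinylated and centred on Tyr, each fixed one residue at one position from −5 to +5. Purified recombinant kinases were incubated with them for 90 min in 384-well plates alongside 50 μM ATP and γ-32P-ATP, and the captured, rinsed peptides on streptavidin membranes were measured by phosphorimaging and ImageQuant. Normalization divided each position's intensities by the sum of its 18 randomized residues (16 for the Ser/Thr-free library) and multiplied by that number, so that values give phosphorylation relative to the mean randomized residue.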

Chain of FLT3, construct: aa564-end, human (P36888 564-993, looked up): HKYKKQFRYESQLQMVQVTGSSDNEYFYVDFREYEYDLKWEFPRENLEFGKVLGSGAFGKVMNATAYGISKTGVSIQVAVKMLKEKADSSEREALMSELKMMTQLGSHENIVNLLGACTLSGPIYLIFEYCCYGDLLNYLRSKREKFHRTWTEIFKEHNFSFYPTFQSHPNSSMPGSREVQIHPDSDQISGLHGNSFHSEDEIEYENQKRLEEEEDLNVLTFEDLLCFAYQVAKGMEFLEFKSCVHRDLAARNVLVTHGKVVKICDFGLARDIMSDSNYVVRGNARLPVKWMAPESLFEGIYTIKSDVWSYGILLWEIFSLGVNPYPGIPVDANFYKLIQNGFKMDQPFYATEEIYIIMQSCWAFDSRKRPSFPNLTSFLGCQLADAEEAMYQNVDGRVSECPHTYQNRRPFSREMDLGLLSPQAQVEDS

## FLT3, construct: aa564-end, human (from UniProt P36888)
A fixed, at +1
  relative phosphorylation: 0.822
A fixed, at +2
  relative phosphorylation: 0.62
A fixed, at +3
  relative phosphorylation: 0.639
A fixed, at +4
  relative phosphorylation: 0.968
A fixed, at +5
  relative phosphorylation: 0.955
A fixed, at -1
  relative phosphorylation: 0.749
A fixed, at -2
  relative phosphorylation: 0.806
A fixed, at -3
  relative phosphorylation: 0.766
A fixed, at -4
  relative phosphorylation: 1.05
A fixed, at -5
  relative phosphorylation: 0.952
D fixed, at +1
  relative phosphorylation: 0.318
D fixed, at +2
  relative phosphorylation: 0.629
D fixed, at +3
  relative phosphorylation: 0.321
D fixed, at +4
  relative phosphorylation: 0.688
D fixed, at +5
  relative phosphorylation: 0.696
D fixed, at -1
  relative phosphorylation: 1.49
D fixed, at -2
  relative phosphorylation: 1.19
D fixed, at -3
  relative phosphorylation: 1.44
D fixed, at -4
  relative phosphorylation: 1.33
D fixed, at -5
  relative phosphorylation: 1.14
E fixed, at +1
  relative phosphorylation: 0.643
E fixed, at +2
  relative phosphorylation: 0.89
E fixed, at +3
  relative phosphorylation: 0.227
E fixed, at +4
  relative phosphorylation: 0.826
E fixed, at +5
  relative phosphorylation: 0.771
E fixed, at -1
  relative phosphorylation: 1.2
E fixed, at -2
  relative phosphorylation: 1.15
E fixed, at -3
  relative phosphorylation: 1.69
E fixed, at -4
  relative phosphorylation: 1.56
E fixed, at -5
  relative phosphorylation: 1.15
F fixed, at +1
  relative phosphorylation: 2.12
F fixed, at +2
  relative phosphorylation: 1.22
F fixed, at +3
  relative phosphorylation: 1.72
F fixed, at +4
  relative phosphorylation: 0.984
F fixed, at +5
  relative phosphorylation: 1.18
F fixed, at -1
  relative phosphorylation: 1.12
F fixed, at -2
  relative phosphorylation: 0.669
F fixed, at -3
  relative phosphorylation: 0.834
F fixed, at -4
  relative phosphorylation: 1
F fixed, at -5
  relative phosphorylation: 0.998
G fixed, at +1
  relative phosphorylation: 0.431
G fixed, at +2
  relative phosphorylation: 0.368
G fixed, at +3
  relative phosphorylation: 0.603
G fixed, at +4
  relative phosphorylation: 0.904
G fixed, at +5
  relative phosphorylation: 1.19
G fixed, at -1
  relative phosphorylation: 0.574
G fixed, at -2
  relative phosphorylation: 0.972
G fixed, at -3
  relative phosphorylation: 0.786
G fixed, at -4
  relative phosphorylation: 1.21
G fixed, at -5
  relative phosphorylation: 1.16
H fixed, at +1
  relative phosphorylation: 1.7
H fixed, at +2
  relative phosphorylation: 0.78
H fixed, at +3
  relative phosphorylation: 0.96
H fixed, at +4
  relative phosphorylation: 1
H fixed, at +5
  relative phosphorylation: 1.15
H fixed, at -1
  relative phosphorylation: 1.56
H fixed, at -2
  relative phosphorylation: 1.1
H fixed, at -3
  relative phosphorylation: 0.946
H fixed, at -4
  relative phosphorylation: 0.938
H fixed, at -5
  relative phosphorylation: 0.976
I fixed, at +1
  relative phosphorylation: 1.6
I fixed, at +2
  relative phosphorylation: 1.19
I fixed, at +3
  relative phosphorylation: 1.52
I fixed, at +4
  relative phosphorylation: 1.05
I fixed, at +5
  relative phosphorylation: 0.961
I fixed, at -1
  relative phosphorylation: 1.25
I fixed, at -2
  relative phosphorylation: 0.954
I fixed, at -3
  relative phosphorylation: 0.688
I fixed, at -4
  relative phosphorylation: 0.913
I fixed, at -5
  relative phosphorylation: 0.871
K fixed, at +1
  relative phosphorylation: 0.705
K fixed, at +2
  relative phosphorylation: 1.02
K fixed, at +3
  relative phosphorylation: 0.895
K fixed, at +4
  relative phosphorylation: 1.2
K fixed, at +5
  relative phosphorylation: 0.902
K fixed, at -1
  relative phosphorylation: 0.583
K fixed, at -2
  relative phosphorylation: 0.843
K fixed, at -3
  relative phosphorylation: 1
K fixed, at -4
  relative phosphorylation: 0.874
K fixed, at -5
  relative phosphorylation: 1.05
L fixed, at +1
  relative phosphorylation: 1.21
L fixed, at +2
  relative phosphorylation: 1.2
L fixed, at +3
  relative phosphorylation: 1.3
L fixed, at +4
  relative phosphorylation: 0.878
L fixed, at +5
  relative phosphorylation: 1.07
L fixed, at -1
  relative phosphorylation: 1.18
L fixed, at -2
  relative phosphorylation: 0.88
L fixed, at -3
  relative phosphorylation: 0.878
L fixed, at -4
  relative phosphorylation: 1.02
L fixed, at -5
  relative phosphorylation: 0.997
M fixed, at +1
  relative phosphorylation: 1.2
M fixed, at +2
  relative phosphorylation: 1
M fixed, at +3
  relative phosphorylation: 1.09
M fixed, at +4
  relative phosphorylation: 1.22
M fixed, at +5
  relative phosphorylation: 1.18
M fixed, at -1
  relative phosphorylation: 1.02
M fixed, at -2
  relative phosphorylation: 0.701
M fixed, at -3
  relative phosphorylation: 1.03
M fixed, at -4
  relative phosphorylation: 0.889
M fixed, at -5
  relative phosphorylation: 0.869
N fixed, at +1
  relative phosphorylation: 0.455
N fixed, at +2
  relative phosphorylation: 1.1
N fixed, at +3
  relative phosphorylation: 0.54
N fixed, at +4
  relative phosphorylation: 0.807
N fixed, at +5
  relative phosphorylation: 0.864
N fixed, at -1
  relative phosphorylation: 1.25
N fixed, at -2
  relative phosphorylation: 1.23
N fixed, at -3
  relative phosphorylation: 1.46
N fixed, at -4
  relative phosphorylation: 0.951
N fixed, at -5
  relative phosphorylation: 1.36
P fixed, at +1
  relative phosphorylation: 0.297
P fixed, at +2
  relative phosphorylation: 0.685
P fixed, at +3
  relative phosphorylation: 0.959
P fixed, at +4
  relative phosphorylation: 0.732
P fixed, at +5
  relative phosphorylation: 1.18
P fixed, at -1
  relative phosphorylation: 0.777
P fixed, at -2
  relative phosphorylation: 1.08
P fixed, at -3
  relative phosphorylation: 0.719
P fixed, at -4
  relative phosphorylation: 0.903
P fixed, at -5
  relative phosphorylation: 0.833
Q fixed, at +1
  relative phosphorylation: 1
Q fixed, at +2
  relative phosphorylation: 0.989
Q fixed, at +3
  relative phosphorylation: 0.665
Q fixed, at +4
  relative phosphorylation: 1.17
Q fixed, at +5
  relative phosphorylation: 0.839
Q fixed, at -1
  relative phosphorylation: 1.11
Q fixed, at -2
  relative phosphorylation: 1.26
Q fixed, at -3
  relative phosphorylation: 1.03
Q fixed, at -4
  relative phosphorylation: 1.21
Q fixed, at -5
  relative phosphorylation: 1.17
R fixed, at +1
  relative phosphorylation: 1.01
R fixed, at +2
  relative phosphorylation: 1.63
R fixed, at +3
  relative phosphorylation: 1.6
R fixed, at +4
  relative phosphorylation: 1.89
R fixed, at +5
  relative phosphorylation: 1.06
R fixed, at -1
  relative phosphorylation: 0.639
R fixed, at -2
  relative phosphorylation: 0.957
R fixed, at -3
  relative phosphorylation: 1.27
R fixed, at -4
  relative phosphorylation: 0.924
R fixed, at -5
  relative phosphorylation: 1.43
S fixed, at +1
  relative phosphorylation: 0.687
S fixed, at +2
  relative phosphorylation: 0.774
S fixed, at +3
  relative phosphorylation: 0.689
S fixed, at +4
  relative phosphorylation: 0.858
S fixed, at +5
  relative phosphorylation: 0.888
S fixed, at -1
  relative phosphorylation: 0.579
S fixed, at -2
  relative phosphorylation: 1.05
S fixed, at -3
  relative phosphorylation: 0.832
S fixed, at -4
  relative phosphorylation: 0.656
S fixed, at -5
  relative phosphorylation: 0.717
T fixed, at +1
  relative phosphorylation: 0.77
T fixed, at +2
  relative phosphorylation: 0.814
T fixed, at +3
  relative phosphorylation: 0.706
T fixed, at +4
  relative phosphorylation: 0.741
T fixed, at +5
  relative phosphorylation: 1.22
T fixed, at -1
  relative phosphorylation: 0.778
T fixed, at -2
  relative phosphorylation: 0.894
T fixed, at -3
  relative phosphorylation: 0.708
T fixed, at -4
  relative phosphorylation: 0.614
T fixed, at -5
  relative phosphorylation: 0.612
V fixed, at +1
  relative phosphorylation: 1.61
V fixed, at +2
  relative phosphorylation: 1.16
V fixed, at +3
  relative phosphorylation: 1.65
V fixed, at +4
  relative phosphorylation: 1.08
V fixed, at +5
  relative phosphorylation: 0.938
V fixed, at -1
  relative phosphorylation: 1.4
V fixed, at -2
  relative phosphorylation: 1.52
V fixed, at -3
  relative phosphorylation: 0.878
V fixed, at -4
  relative phosphorylation: 0.808
V fixed, at -5
  relative phosphorylation: 0.787
W fixed, at +1
  relative phosphorylation: 1.43
W fixed, at +2
  relative phosphorylation: 1.94
W fixed, at +3
  relative phosphorylation: 1.91
W fixed, at +4
  relative phosphorylation: 1
W fixed, at +5
  relative phosphorylation: 0.961
W fixed, at -1
  relative phosphorylation: 0.746
W fixed, at -2
  relative phosphorylation: 0.75
W fixed, at -3
  relative phosphorylation: 1.04
W fixed, at -4
  relative phosphorylation: 1.15
W fixed, at -5
  relative phosphorylation: 0.928
pThr fixed, at +1
  relative phosphorylation: 0.505
pThr fixed, at +2
  relative phosphorylation: 0.966
pThr fixed, at +3
  relative phosphorylation: 0.209
pThr fixed, at +4
  relative phosphorylation: 0.413
pThr fixed, at +5
  relative phosphorylation: 0.512
pThr fixed, at -1
  relative phosphorylation: 1.02
pThr fixed, at -2
  relative phosphorylation: 0.971
pThr fixed, at -3
  relative phosphorylation: 1.23
pThr fixed, at -4
  relative phosphorylation: 0.887
pThr fixed, at -5
  relative phosphorylation: 1.02
pTyr fixed, at +1
  relative phosphorylation: 1.92
pTyr fixed, at +2
  relative phosphorylation: 1.34
pTyr fixed, at +3
  relative phosphorylation: 0.334
pTyr fixed, at +4
  relative phosphorylation: 0.649
pTyr fixed, at +5
  relative phosphorylation: 0.693
pTyr fixed, at -1
  relative phosphorylation: 2.37
pTyr fixed, at -2
  relative phosphorylation: 1.29
pTyr fixed, at -3
  relative phosphorylation: 1.63
pTyr fixed, at -4
  relative phosphorylation: 1.43
pTyr fixed, at -5
  relative phosphorylation: 1.11

Source: the supplement of paper PMC11136658
